From US11591404B2, “Treatment of cancer using a CD123 chimeric antigen receptor” (Novartis AG, priority 2014, dated 2023)

B1: CAR123-3: fully human anti-CD123 scFv CAR with 4-1BB and CD3zeta; CAR amino acid SEQ ID NO: 100 (protein, listed as Homo sapiens)
chain: MALPVTALLLPLALLLHAARPQVQLVQSGAEVKKPGASVKVSCKASGYIFTGYYIHWVRQAPGQGLEWMGWINPNSGGTNYAQKFQGRVTMTRDTSISTAYMELSGLRSDDPAVYYCARDMNILATVPFDIWGQGTLVTVSSGGGGSGGGGSGGGGSDIQLTQSPSSLSASVGDRVTITCRASQSISSYLNWYQQKPGKAPKLLIYAASSLQSGVPSRFSGSGSGTDFTLTVNSLQPEDFATYYCQQGDSVPLTFGGGTKVEIKTTTPAPRPPTPAPTIASQPLSLRPEACRPAAGGAVHTRGLDFACDIYIWAPLAGTCGVLLLSLVITLYCKRGRKKLLYIFKQPFMRPVQTTQEEDGCSCRFPEEEEGGCELRVKFSRSADAPAYKQGQNQLYNELNLGRREEYDVLDKRRGRDPEMGGKPRRKNPQEGLYNELQKDKMAEAYSEIGMKGERRRGKGHDGLYQGLSTATKDTYDALHMQALPPR
B2: CAR123-4: fully human anti-CD123 scFv CAR with 4-1BB and CD3zeta; CAR amino acid SEQ ID NO: 101 (protein, listed as Homo sapiens)
chain: MALPVTALLLPLALLLHAARPQVQLQQSGAEVKKSGASVKVSCKASGYTFTDYYMHWLRQAPGQGLEWMGWINPNSGDTNYAQKFQGRVTLTRDTSISTVYMELSRLRSDDTAVYYCARDMNILATVPFDIWGQGTMVTVSSASGGGGSGGRASGGGGSDIQMTQSPSSLSASVGDRVTITCRASQSISSYLNWYQQKPGKAPKLLIYAASSLQSGVPSRFSGSGSGTDFTLTISSLQPEDFATYYCQQGDSVPLTFGGGTKVEIKTTTPAPRPPTPAPTIASQPLSLRPEACRPAAGGAVHTRGLDFACDIYIWAPLAGTCGVLLLSLVITLYCK
B3: 1176: murine CD123 CAR construct, CD123 4-1BBCD3z-CAR (26292), SEQ ID NO: 708, described in PCT/US2014/017328 (protein)
chain: MALPVTALLLPLALLLHAARPGSDVQITQSPSYLAASPGETITINCRASKSISKDLAWYQEKPGKTNKLLIYSGSTLQSGIPSRFSGSGSGTDFTLTISSLEPEDFAMYYCQQHNKYPYTFGGGTKLEIKGGGGSGGGGSSGGGSQVQLQQPGAELVRPGASVKLSCKASGYTFTSYWMNWVKQRPDQGLEWIGRIDPYDSETHYNQKFKDKAILTVDKSSSTAYMQLSSLTSEDSAVYYCARGNWDDYWGQGTTLTVSSASSGTTTPAPRPPTPAPTIASQPLSLRPEACRPAAGGAVHTRGLDFACDIYIWAPLAGTCGVLLLSLVITLYCKRGRKKLLYIFKQPFMRPVQTTQEEDGCSCRFPEEEEGGCELRVKFSRSADAPAYKQGQNQLYNELNLGRREEYDVLDKRRGRDPEMGGKPRRKNPQEGLYNELQKDKMAEAYSEIGMKGERRRGKGHDGLYQGLSTATKDTYDALHMQALPPR
B4: 1172: murine CD123 CAR construct, CD123 4-1BBCD3z-CAR, SEQ ID NO: 707, described in PCT/US2014/017328 (protein)
chain: MALPVTALLLPLALLLHAARPGSDIVLTQSPASLAVSLGQRATISCRASESVDNYGNTFMHWYQQKPGQPPKLLIYRASNLESGIPARFSGSGSRTDFTLTINPVEADDVATYYCQQSNEDPPTFGAGTKLELKGGGGSGGGGSSGGGSQIQLVQSGPELKKPGETVKISCKASGYIFTNYGMNWVKQAPGKSFKWMGWINTYTGESTYSADFKGRFAFSLETSASTAYLHINDLKNEDTATYFCARSGGYDPMDYWGQGTSVTVSSASSGTTTPAPRPPTPAPTIASQPLSLRPEACRPAAGGAVHTRGLDFACDIYIWAPLAGTCGVLLLSLVITLYCKRGRKKLLYIFKQPFMRPVQTTQEEDGCSCRFPEEEEGGCELRVKFSRSADAPAYKQGQNQLYNELNLGRREEYDVLDKRRGRDPEMGGKPRRKNPQEGLYNELQKDKMAEAYSEIGMKGERRRGKGHDGLYQGLSTATKDTYDALHMQALPPR

Experiments:
cynomolgus CD123 = experiment: Cross-reactivity of anti-CD123 clones against cynomolgus CD123; type: binding
[1] = system: MOLM14 (CD123+ tumor cells); experiment: CD107a degranulation of CART cells, 2 hours; type: cell-based; conditions: 2-hr in vitro assay, CD123+ targets
Protocol: To assess degranulation, CART cells (NVS 2-4, 1172 and 1176 clones) were thawed, rested overnight at a concentration of 2e^6 cells/ml in T cell media. Cells were then counted and resuspended at 1e^6 cells/ml the following day. Tumor target cells (TCM, PMA/iono, MOLM14 or JURKAT) were resuspended at 5e^6 cells/ml. Cells were plated at a ratio of 1e^5 T cell: 5e^5 tumor cell in 48 well plates and incubated for 2 hours in the presence of anti-CD107a PECy7, anti-CD49d purified, and anti-CD28 purified antibodies. Cells were then harvested, stained with anti-CD3 APC and acquired using BD LSR Fortessa (FIG. 7).

Row | Molecule | cross-reactivity against cynomolgus CD123 (cynomolgus CD123) | T cell degranulation (CD107a) [1]
1 | B1 | cross-reactive against cynomolgus CD123 | 
2 | B2 | cross-reactive against cynomolgus CD123 | 
3 | B3 | cross-reactive against cynomolgus CD123 | 65%
4 | B4 | is not | 
